5 molecules from patent US7560106B2, “Rationally designed heparinases derived from heparinase I and II and methods of sequencing therewith” (Massachusetts Institute of Technology, priority 1998, dated 2009) can be followed below.

Like-named read-outs stand apart in the source and are kept apart here.

Data set [1] in a line: Heparin-POROS affinity chromatography. Conditions: for NaCl: salt concentration at which enzyme elutes from heparin-POROS column, 10 mM Tris, 1 mM EDTA pH 7.0. Format: binding. How it is done: Heparin-POROS chromatography: About 30-40 μg of -L r-heparinase I and the various mutant enzymes were injected into a heparin POROS (4.6 mm×100) column (PerSeptive BioSystems, Framingham, Mass.) connected to BioCAD system (PerSeptive BioSystems). Proteins were eluted using a linear gradient of […] NaCl in 10 min (10 mM Tris, 1 mM EDTA pH 7.0) and monitored at 210 nm. EDTA was added to chelate any calcium ions that may be present in the buffers.

The nature of data set [2]: Heparinase I UV 232 nm activity assay as a function of heparin concentration (Kcat, Km). Format: biochemical, porcine. Conditions: for Kcat / Km: heparin 0 to 4 mg/ml, 5 mM calcium acetate, pH 7.0; for Kcat: 100 mM MOPS. An excerpt:
Heparinase II Activity Assay. Native heparinase II from Flavobacterium heparinum, was purified as described previously (Godavarti, R., and Sasisekharan, R (1996c) Biochem. Biophys. Res. Comm. 229, 770-777). The UV 232 nm assay to quantify native heparinase II enzymatic activity was similar to that reported for heparinase I (Bernstein, H., Yang, V. C., Cooney, C. L., Langer, R. (1988) Meth. Enzym. 137, 515-29). Briefly, the course of the reaction is monitored by measuring the increase in absorbance at 232 nm as a function of time under saturating substrate concentrations. With heparin as the substrate, the reaction was carried out at a concentration of 4 mg/ml in 50 mM sodium phosphate buffer, pH 7.3. With 2 mg/ml heparan sulfate, the reaction was measured in 50 mM sodium phosphate buffer, pH 6.9 (Sasisekharan, R., Moses, M. A., Nugent, M. A., Cooney, C. L., Langer, R. (1994) Proc. Natl. Acad. Sci., USA 91, 1524-1528). The temperature for all enzymatic activity measurements was kept constant at 35° C.
Heparinase I Activity Assay. The UV 232 nm assay to quantify heparinase I enzymatic activity was similar to that described in Example 1. With heparin as the substrate, the reaction was carried out at a concentration of 4 mg/ml in 100 mM MOPS, 5 mM calcium acetate, pH 7.0. The temperature for all enzymatic activity measurements was kept constant at 30° C. For the inactivation kinetic profiles, activity was measured as outlined above at precise time points.
(§1) Heparinase I Activity Assays: The UV 232 nm assay was used as described in Example 1. When measuring the enzyme activity as a function of heparin concentration, heparin concentrations varied from 0 to 4 mg/ml at a fixed calcium concentration of 5 mM (100 mM MOPS buffer/5 mM calcium acetate, pH 7.0). The data was then fit to an non-linear equation to determine Kcat and Km of heparinases I. Heparinase mutant activity was also investigated as a function of calcium concentration ranging from 0 to 10 mM. […] Activity is expressed as IU-μmol product formed/min using ∈=−3800-M^−1CM^−1.

The nature of data set [3]: Fluorescence competition for calcium with probe rhod-5N. Conditions: apparent dissociation constant of rhod-5N for calcium with 3 μM enzyme; lower Kd′ means less binding of calcium by heparinase I. How it is done: Fluorescence Competition. To determine the effect of mutations in CB-1 and CB-2 on the ability of heparinase I to bind calcium, mutants with a dramatic drop in activity were tested for their ability to bind calcium. To accomplish this, we examined the ability of heparinase I and mutants to compete for free calcium with the calcium-chelating fluorescence probe rhod-5N. The fluorescence probe rhod-5N was dissolved and diluted in buffer A (10 mM MOPS and 100 mM KCl, pH 6.5). Buffer A and the water used in the study were run through a Chelex Resin column to remove trace amounts of calcium. In the absence of calcium, rhod-5N is not fluorescent, however upon binding calcium rhod-5N is fluorescent with an emission λmax of 576 nm. Before titration, rhod-5N and heparinase I were added to a quartz cuvette such that the final concentration of rhod-5N in the cuvette was 0.3 μM and heparinase I is 3 μM. To this solution was added aliquots of a calcium solution (20 mM) which had been previously equilibrated with 0.3 μM rhod-5N and 3 μM heparinase I. The stock was added such that the calcium concentration in the cuvette was 50, 100, 200, 500, 1000, 5000 μM. After allowing the solution to come to equilibrium, the sample was scanned from 560 nm to 600 nm with the excitation wavelength fixed at […]. The plot of I/Imax versus [Ca^++] was fitted to a non-linear equation to determine the apparent Kd (Kd′) value. Thus, Kd′ values represent the apparent dissociation constants for the fluorescence probe rhod-5N. Control samples without heparinase I were included in the study.

Data set [4] in a line: Heparinase I activity as a function of calcium concentration (K0.5, calcium dependence). Type of data set: biochemical. Here is the method:
as §1

The mark [5] stands for this setting: calcium concentration at which half of the maximum enzyme activity was observed, calcium 0 to 10 mM, Table 4 first K0.5 column.

B1: E381A: heparinase I CB-2 mutant, glutamate 381 changed to alanine (protein, UniProt Q05819 22-384, looked up, variant E381A)
Heparin lyase I: QQKKSGNIPYRVNVQADSAKQKAIIDNKWVAVGINKPYALQYDDKLRFNGKPSYRFELKAEDNSLEGYAAGETKGRTELSYSYATTNDFKKFPPSVYQNAQKLKTVYHYGKGICEQGSSRSYTFSVYIPSSFPDNATTIFAQWHGAPSRTLVATPEGEIKTLSIEEFLALYDRMIFKKNIAHDKVEKKDKDGKITYVAGKPNGWKVEQGGYPTLAFGFSKGYFYIKANSDRQWLTDKADRNNANPENSEVMKPYSSEYKTSTIAYKMPFAQFPKDCWITFDVAIDWTKYGKEANTILKPGKLDVMMTYTKNKKPQKAHIVNQQEILIGRNDDDGYYFKFGIYRVGNSTVPVTYNLSGYSATAR
Broadly, the Km is the concentration of substrate that gives half-maximal velocity. B1: the NaCl in data set [1] is on record as 505 mM. Besides, in data set [2], the “decrease in Kcat compared to wild-type r-heparinase I” value (“decrease in Kcat” below) is “about 10 fold”, the Kcat worked out at 10 s⁻¹ and the Michaelis-Menten constant (Km) amounted to 0.52 µM. In addition, the Kd in data set [3] was 175 µM. The K0.5 in data set [4] (Table 4 second K0.5 column) was 180 µM. Further, the K0.5 in data set [4] (setting [5]) was determined as 180 µM.

B2: N375A: heparinase I CB-2 mutant, asparagine 375 changed to alanine (protein, UniProt Q05819 22-384, looked up, variant N375A)
Heparin lyase I: QQKKSGNIPYRVNVQADSAKQKAIIDNKWVAVGINKPYALQYDDKLRFNGKPSYRFELKAEDNSLEGYAAGETKGRTELSYSYATTNDFKKFPPSVYQNAQKLKTVYHYGKGICEQGSSRSYTFSVYIPSSFPDNATTIFAQWHGAPSRTLVATPEGEIKTLSIEEFLALYDRMIFKKNIAHDKVEKKDKDGKITYVAGKPNGWKVEQGGYPTLAFGFSKGYFYIKANSDRQWLTDKADRNNANPENSEVMKPYSSEYKTSTIAYKMPFAQFPKDCWITFDVAIDWTKYGKEANTILKPGKLDVMMTYTKNKKPQKAHIVNQQEILIGRNDDDGYYFKFGIYRVGNSTVPVTYALSGYSETAR
Turning to B2, in data set [1], the “elution salt concentration / heparin binding relative to wild-type r-heparinase I, in words” value is on record as “comparable to wild-type r-heparinase I” and the NaCl was 490 mM. In data set [2], the “decrease in Kcat” value is recorded as “about 10 fold”, the Kcat is 10 s⁻¹ and the Michaelis-Menten constant (Km) stood at 0.88 µM. Further, the “decrease in Kcat” value in data set [2] (listed as N375) is listed as “more than 9 fold”. Besides, the Kd in data set [3] was determined as 216 µM. Further, the K0.5 in data set [4] (Table 4 second K0.5 column) was 60 µM. Besides, the K0.5 in data set [4] (setting [5]) worked out at 60 µM.

B3: -L: wild-type recombinant heparinase I expressed without the putative F. heparinum leader sequence (protein, UniProt Q05819 22-384, looked up)
Heparin lyase I: QQKKSGNIPYRVNVQADSAKQKAIIDNKWVAVGINKPYALQYDDKLRFNGKPSYRFELKAEDNSLEGYAAGETKGRTELSYSYATTNDFKKFPPSVYQNAQKLKTVYHYGKGICEQGSSRSYTFSVYIPSSFPDNATTIFAQWHGAPSRTLVATPEGEIKTLSIEEFLALYDRMIFKKNIAHDKVEKKDKDGKITYVAGKPNGWKVEQGGYPTLAFGFSKGYFYIKANSDRQWLTDKADRNNANPENSEVMKPYSSEYKTSTIAYKMPFAQFPKDCWITFDVAIDWTKYGKEANTILKPGKLDVMMTYTKNKKPQKAHIVNQQEILIGRNDDDGYYFKFGIYRVGNSTVPVTYNLSGYSETAR
modifications: recombinant, without leader sequence
B3: the results for the NaCl in data set [1] and in data set [1] (listed as wild-type r-heparinase I) were 482 ± 3 mM and “about 482 mM”, respectively. The Kcat in data set [2] was 92 s⁻¹. The Michaelis constant (Km) in data set [2] was found to be 3.94 µM. For the same molecule, the Kd in data set [3] amounted to 206 µM. In addition, the K0.5 in data set [4] (Table 4 second K0.5 column) and in data set [4] (setting [5]) was 270 µM each time.

B4: E207A/D210A/D212A: heparinase I CB-1 triple mutant (protein, UniProt Q05819 22-384, looked up, variant E207A D210A D212A)
Heparin lyase I: QQKKSGNIPYRVNVQADSAKQKAIIDNKWVAVGINKPYALQYDDKLRFNGKPSYRFELKAEDNSLEGYAAGETKGRTELSYSYATTNDFKKFPPSVYQNAQKLKTVYHYGKGICEQGSSRSYTFSVYIPSSFPDNATTIFAQWHGAPSRTLVATPEGEIKTLSIEEFLALYDRMIFKKNIAHDKVAKKAKAGKITYVAGKPNGWKVEQGGYPTLAFGFSKGYFYIKANSDRQWLTDKADRNNANPENSEVMKPYSSEYKTSTIAYKMPFAQFPKDCWITFDVAIDWTKYGKEANTILKPGKLDVMMTYTKNKKPQKAHIVNQQEILIGRNDDDGYYFKFGIYRVGNSTVPVTYNLSGYSETAR
As for B4, the NaCl in data set [1] is reported as 540 mM. Also, the Kcat in data set [2] came out at 25 s⁻¹. Further, in data set [2], the Km came to 0.73 µM. Also, in data set [3], the Kd is 151 µM. The K0.5 in data set [4] (Table 4 second K0.5 column) and in data set [4] (setting [5]) was 810 µM throughout.

B5: G378A/Y379A: heparinase I CB-2 double mutant (protein, UniProt Q05819 22-384, looked up, variant G378A Y379A)
Heparin lyase I: QQKKSGNIPYRVNVQADSAKQKAIIDNKWVAVGINKPYALQYDDKLRFNGKPSYRFELKAEDNSLEGYAAGETKGRTELSYSYATTNDFKKFPPSVYQNAQKLKTVYHYGKGICEQGSSRSYTFSVYIPSSFPDNATTIFAQWHGAPSRTLVATPEGEIKTLSIEEFLALYDRMIFKKNIAHDKVEKKDKDGKITYVAGKPNGWKVEQGGYPTLAFGFSKGYFYIKANSDRQWLTDKADRNNANPENSEVMKPYSSEYKTSTIAYKMPFAQFPKDCWITFDVAIDWTKYGKEANTILKPGKLDVMMTYTKNKKPQKAHIVNQQEILIGRNDDDGYYFKFGIYRVGNSTVPVTYNLSAASETAR
For the molecule B5, in data set [1], the “elution salt concentration / heparin binding relative to wild-type r-heparinase I, in words” value is “comparable to wild-type r-heparinase I” and the NaCl is 489 mM. Moreover, in data set [2], the Kcat is 9 s⁻¹ and the Km was determined as 0.31 µM. Also, the Kd in data set [3] turned out to be 136 µM. In addition, the K0.5 in data set [4] (Table 4 second K0.5 column) turned out to be 90 µM. For the same molecule, in data set [4] (setting [5]), the K0.5 stood at 90 µM.
